Laboratory results: patent publication US20090202562A1 (Biogen, published 2009)

B1: Fab fragment MOR02683 (Fab, V domains shown)
VH: QVQLVESGGGLVQPGGSLRLSCAASGFTFSNYTMHWVRQAPGKGLEWVSVISYDGSSTYYADSVKGRFTISRDNSKNTLYLQMNSLRAEDTAVYYCARIVRMDIWGQGTLVTVSS
VL: DIVLTQSPATLSLSPGERATLSCRASQSVNSHYLAWYQQKPGQAPRLLIYGASNRATGVPARFSGSGSGTDFTLTISSLEPEDFATYYCQQMDGFPFTFGQGTKVEIKR
notes: From the HuCAL GOLD Fab phage display library; also called anti-GFRalpha3 Fab fragment MOR02683
B2: rat Neublastin (113 amino acid form) (ligand)
chain: AGTRSSRARATDARGCRLRSQLVPVSALGLGHSSDELIRFRFCSGSCRRARSPHDLSLASLLDAGALRSPPGSRPISQPCCRPTRYEAVSFMDVNSTWRTVDHLSATACGCLG

Assays:
[1] = target: T1, rat GFRalpha3 (rat, UniProt O35118 29-370 (mouse entry)); experiment: FACS
T1 construct: Expressed on transiently transfected HEK 293 EBNA cells; also called RetL3
T1 chain: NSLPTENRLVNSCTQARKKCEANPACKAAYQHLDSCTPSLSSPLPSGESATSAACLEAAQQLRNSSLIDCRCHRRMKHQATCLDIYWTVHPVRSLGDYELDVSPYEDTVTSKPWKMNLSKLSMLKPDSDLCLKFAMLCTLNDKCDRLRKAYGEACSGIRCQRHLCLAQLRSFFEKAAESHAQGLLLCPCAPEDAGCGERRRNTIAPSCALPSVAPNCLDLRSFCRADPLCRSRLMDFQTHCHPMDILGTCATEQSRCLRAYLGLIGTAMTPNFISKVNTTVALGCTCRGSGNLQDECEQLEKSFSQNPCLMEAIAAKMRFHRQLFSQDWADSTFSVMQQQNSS

[2] = target: T2, rat GFRalpha1 (rat, UniProt Q62997 25-430); experiment: FACS on transiently transfected HEK 293 EBNA cells
T2 construct: whole, on cells; Expressed on transiently transfected HEK 293 EBNA cells
T2 sequence (looked up): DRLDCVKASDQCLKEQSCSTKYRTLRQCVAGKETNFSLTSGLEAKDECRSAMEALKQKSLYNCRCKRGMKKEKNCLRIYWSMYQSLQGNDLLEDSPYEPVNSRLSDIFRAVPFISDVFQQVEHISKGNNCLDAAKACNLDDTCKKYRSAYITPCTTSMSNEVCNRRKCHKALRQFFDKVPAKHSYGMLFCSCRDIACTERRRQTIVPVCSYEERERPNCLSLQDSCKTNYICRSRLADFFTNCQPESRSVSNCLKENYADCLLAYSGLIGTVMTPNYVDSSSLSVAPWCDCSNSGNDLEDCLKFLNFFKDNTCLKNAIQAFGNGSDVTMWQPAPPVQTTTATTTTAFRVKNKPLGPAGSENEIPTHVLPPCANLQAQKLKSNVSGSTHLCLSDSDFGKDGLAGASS
Method: (§1) HEK 293 EBNA cells were transiently transfected with an empty vector, a vector encoding rat GFRalpha1, a vector encoding rat GFRalpha2, or a vector encoding rat GFRalpha3. These cells were stained with 10 ug/ml of the anti-GFRalpha3 polyclonal antibody R11 (a rabbit polyclonal antibody generated by immunization with the peptide […] (SEQ ID NO:14), which contains a murine GFRalpha3 sequence and a heterologous GC sequence at its carboxy terminus) or with 10 ug/ml MOR02683. The vector-transfected cells shifted slightly above the unstained baseline because the HEK 293 EBNA cells endogenously expresses GFRalpha3 (FIGS. 2A and 2B). […] The lack of shift of the GFRalpha1-transfected cells and GFRalpha2-transfected cells as compared to vector-transfected cells indicated the specificity of MOR02683 for GFRalpha3 over its close family members (FIGS. 2A and 2B).

[3] = target: T3, rat GFRalpha2 (rat, UniProt O35977 22-444); experiment: FACS on transiently transfected HEK 293 EBNA cells
T3 construct: whole, on cells; Expressed on transiently transfected HEK 293 EBNA cells
T3 sequence: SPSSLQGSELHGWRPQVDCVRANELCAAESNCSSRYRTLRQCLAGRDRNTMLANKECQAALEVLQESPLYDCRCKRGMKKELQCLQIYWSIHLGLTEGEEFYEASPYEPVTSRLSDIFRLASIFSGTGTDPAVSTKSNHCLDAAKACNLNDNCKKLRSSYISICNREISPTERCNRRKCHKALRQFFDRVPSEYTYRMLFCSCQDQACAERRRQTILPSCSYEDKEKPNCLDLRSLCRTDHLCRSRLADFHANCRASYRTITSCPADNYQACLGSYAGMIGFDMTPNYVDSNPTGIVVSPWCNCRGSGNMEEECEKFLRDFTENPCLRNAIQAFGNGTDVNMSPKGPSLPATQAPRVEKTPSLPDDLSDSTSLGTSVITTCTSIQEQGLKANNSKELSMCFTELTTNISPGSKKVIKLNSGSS
Method: as §1

[4] = target: murine GFRalpha3-Ig (murine); experiment: inhibition of Neublastin-GFRalpha3-Ret ternary complex formation: MOR02683 preincubated with 1 ug/ml murine GFRalpha3-Ig, 50 ng/ml rat Neublastin and rat Ret-AP conditioned media; capture on an anti-human Fc plate; AP chemiluminescence
Method: MOR02683 was preincubated with 1 ug/ml murine GFRalpha3-Ig ([…] […] […] […] […] […] […] […] […] […] […] […]; SEQ ID NO:19) and 50 ng/ml rat Neublastin (113 amino acid form; […] […] TACGCLG; SEQ ID NO:20) in rat Ret-alkaline phosphatase ([…] […] […] […] […] […] […] […] […] […] […] […] […] […] […] […] […] […] […] […] […] […]; SEQ ID NO:21) conditioned media for an hour before being added to the coated plate for another hour. The alkaline phosphatase (AP) was visualized with a chemiluminescent substrate and the plate was read on a luminometer.

[5] = target: T4, murine GFRalpha3 (murine, UniProt O35118 29-371); experiment: Neublastin competition binding on NB41A3-L3 cells (murine GFRalpha3 plus endogenous murine Ret): 0-10 uM rat Neublastin for 10 min at 4 C, unoccupied GFRalpha3 probed with 10 ug/ml biotinylated MOR02683, FACS with PE-Streptavidin, hyperbolic fit
T4 construct: also called murine GFRalpha3 on NB41A3-L3 cells
T4 sequence: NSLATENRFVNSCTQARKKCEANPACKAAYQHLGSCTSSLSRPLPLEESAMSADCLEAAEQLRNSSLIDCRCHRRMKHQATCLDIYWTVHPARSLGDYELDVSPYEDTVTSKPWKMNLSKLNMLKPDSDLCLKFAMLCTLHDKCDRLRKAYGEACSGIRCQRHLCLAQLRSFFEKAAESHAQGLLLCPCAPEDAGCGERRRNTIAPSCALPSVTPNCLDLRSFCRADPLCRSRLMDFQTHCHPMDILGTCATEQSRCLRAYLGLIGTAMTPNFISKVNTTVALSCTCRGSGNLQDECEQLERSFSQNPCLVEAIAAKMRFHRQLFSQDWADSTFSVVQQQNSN
Method: NB41A3-L3 cells were incubated with different concentrations of rat Neublastin for 10 minutes at 4° C. During the incubation period, the binding reaction of Neublastin to GFRalpha3 and Ret on the cell surface reaches equilibrium. Cells were then quenched with a high concentration (10 ug/ml) of biotinylated MOR02683 for 2 minutes. MOR02683 can only bind to GFRalpha3 receptors that are not already occupied by Neublastin and thus acts as a probe for unoccupied GFRalpha3 receptors. During the short incubation time of the quenching reaction, no re-equilibration between Neublastin and MOR02683 binding occurs. The amount of MOR02683 bound to GFRalpha3 was then quantified via FACS analysis using PE-Streptavidin as a secondary reagent.
Neublastin competition binding was used to measure Neublastin binding affinities to receptors on the cell surface. NB41A3-L3 cells were incubated with 0-10 uM rat Neublastin for 10 minutes at 4° C. Cells were then quenched with 10 ug/ml biotinylated MOR02683 for 2 minutes. The amount of MOR02683 bound to GFRalpha3 was quantified by FACS using PE-Streptavidin as a secondary reagent. […] A Neublastin concentration-dependent reduction in the subsequent binding of MOR02683 was observed, but not with the control antibody MOR02682 (FIG. 8).

| Binder | binding result [1] | binding result [2] | binding result [3] | EC50 [4] | Kd [5] |
| --- | --- | --- | --- | --- | --- |
| B1 | binds | no binding (tested: 10 ug/ml) | no binding (tested: 10 ug/ml) | ~0.25 µg/mL |  |
| B2 |  |  |  |  | ~200 nM |
